Results: publication PMC6917717, “YtfK activates the stringent response by triggering the alarmone synthetase SpoT in Escherichia coli” (Nature Communications, 2019)

Molecular target: T1, SpoT catalytic domains (SpoT^1-378) (E. coli, UniProt P0AG24 1-378)
T1 construct: SpoT, E. coli, residues 1-378 (catalytic domains: hydrolase and synthetase); no cleavage is described; also called SpoT^1–378-6His; recombinant SpoT^1–378
Experiment: BLI; biotinylated YtfK (2.5 µM) on streptavidin biosensors; SpoT1-378 (5-80 µM) or RelA1-396 (40-120 µM) as analyte; BLItz, 25 °C; 50 mM Tris-HCl pH 8.0, 500 mM NaCl, 500 mM KCl, 2 mM β-mercaptoethanol, glycerol 2%, BSA 1 mg/ml; KD estimated from responses 10 s before the end of association, one-site fit
Settings: both partners purified

T1 sequence (P0AG24 1-378): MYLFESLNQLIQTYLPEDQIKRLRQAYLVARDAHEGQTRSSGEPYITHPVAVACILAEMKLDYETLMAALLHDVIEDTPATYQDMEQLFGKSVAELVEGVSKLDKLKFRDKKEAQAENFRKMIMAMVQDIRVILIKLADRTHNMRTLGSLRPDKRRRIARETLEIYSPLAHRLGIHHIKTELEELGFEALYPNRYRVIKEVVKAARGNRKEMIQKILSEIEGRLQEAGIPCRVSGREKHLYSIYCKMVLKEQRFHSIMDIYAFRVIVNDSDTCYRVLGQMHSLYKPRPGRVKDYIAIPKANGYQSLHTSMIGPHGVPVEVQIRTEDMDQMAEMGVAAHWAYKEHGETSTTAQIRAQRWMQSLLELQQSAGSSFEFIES

B1: YtfK, purified, biotinylated (natural protein)
chain: not shown
modifications: biotin (EZ-Link NHS-PEG4-Biotin, 1:1 ratio of YtfK and biotin)
notes: YtfK, E. coli; ytfK gene amplified from E. coli chromosomal DNA and cloned in pET28a+-TRX (thioredoxin-6his-tev); the TRX-6His-TEV cassette (NcoI/BamHI) lies upstream of ytfK (BamHI/HindIII), so residues from the TEV site and cloning site may remain at the N-terminus; also called Untagged YtfK; biotinylated YtfK
Kd: 35 µM
